# IntAct's records for PubMed 22057290
# B1: Ubiquitin carboxyl-terminal hydrolase CYLD (Homo sapiens), Q9NQC7 (parent)
# chain: MSSGLWSQEKVTSPYWEERIFYLLLQECSVTDKQTQKLLKVPKGSIGQYIQDRSVGHSRIPSAKGKKNQIGLKILEQPHAVLFVDEKDVVEINEKFTELLLAITNCEERFSLFKNRNRLSKGLQIDVGCPVKVQLRSGEEKFPGVVRFRGPLLAERTVSGIFFGVELLEEGRGQGFTDGVYQGKQLFQCDEDCGVFVALDKLELIEDDDTALESDYAGPGDTMQVELPPLEINSRVSLKVGETIESGTVIFCDVLPGKESLGYFVGVDMDNPIGNWDGRFDGVQLCSFACVESTILLHINDIIPALSESVTQERRPPKLAFMSRGVGDKGSSSHNKPKATGSTSDPGNRNRSELFYTLNGSSVDSQPQSKSKNTWYIDEVAEDPAKSLTEISTDFDRSSPPLQPPPVNSLTTENRFHSLPFSLTKMPNTNGSIGHSPLSLSAQSVMEELNTAPVQESPPLAMPPGNSHGLEVGSLAEVKENPPFYGVIRWIGQPPGLNEVLAGLELEDECAGCTDGTFRGTRYFTCALKKALFVKLKSCRPDSRFASLQPVSNQIERCNSLAFGGYLSEVVEENTPPKMEKEGLEIMIGKKKGIQGHYNSCYLDSTLFCLFAFSSVLDTVLLRPKEKNDVEYYSETQELLRTEIVNPLRIYGYVCATKIMKLRKILEKVEAASGFTSEEKDPEEFLNILFHHILRVEPLLKIRSAGQKVQDCYFYQIFMEKNEKVGVPTIQQLLEWSFINSNLKFAEAPSCLIIQMPRFGKDFKLFKKIFPSLELNITDLLEDTPRQCRICGGLAMYECRECYDDPDISAGKIKQFCKTCNTQVHLHPKRLNHKYNPVSLPKDLPDWDWRHGCIPCQNMELFAVLCIETSHYVAFVKYGKDDSAWLFFDSMADRDGGQNGFNIPQVTPCPEVGEYLKMSLEDLHSLDSRRIQGCARRLLCDAYMCMYQSPTMSLYK
# Variants of: B1
# Conditions: with itch_human ITCH
row,effect of a mutation on the interaction,Variant
1,disrupting interaction,Y485A
